Source: publication PMC3587573
One block for each substance: values may come before it.

Columns and labels:
BvPIP1;1 (Beta vulgaris) [1] = target: BvPIP1;1 (Beta vulgaris)
BvPIP1;1 (Beta vulgaris) [2] = target: BvPIP1;1 (Beta vulgaris); remark: listed apart in the source

- maximal inhibition of Pf by cytosolic acidification in oocytes co-injected with BvPIP2;1 and BvPIP1;1 cRNA (1:1 mass ratio); not significantly different from BvPIP2;1 alone (BvPIP1;1 (Beta vulgaris) [1]): 87%
Substance: BvPIP2;1 (natural protein)

- oocyte membrane Pf on co-injection of BvPIP1;1 and BvPIP2;1 N64H/E65Q cRNA, against the mutant alone (BvPIP1;1 (Beta vulgaris) [2]): 4.3 fold
Substance: BvPIP2;1 N64H/E65Q (natural protein)

- oocyte membrane Pf on co-injection of BvPIP1;1 and BvPIP2;1 N64I/E65Q cRNA, against the mutant alone (BvPIP1;1 (Beta vulgaris) [2]): 4.1 fold
Substance: BvPIP2;1 N64I/E65Q (natural protein)
